Experimental data taken from patent US20230046744A1 (APO T B V, published 2023).
Blank lines part the entries; values can stand above or below the binder they belong to.

Key:
[1] = biological target: T1, biotinylated HLA-A*2402/… complex (human, biotinylated complex, site not stated); assay: ELISA, biotinylated complexes on streptavidin plates, dilution series of the antibody
T1 construct: recombinant complex on streptavidin plates

[2] = biological target: HLA-A*2402/… complex on CHO-S cells (human); assay: flow cytometry on CHO-S transfectants
Experimental: Non transfected CHO-S cells were used as a control. For the staining 200′000 cells were suspended in 100 μl PBS containing 0.1% BSA. […] After 30 minutes incubation at 40° C. the cells were washed two times with 200 μl PBS containing 0.1% BSA. […] After the incubation, cells were washed again two times with 200 μl PBS containing 0.1% BSA.

[3] = biological target: T2, biotinylated HLA-A*2402/… complex (human, biotinylated complex, site not stated); assay: ELISA, biotinylated complexes on streptavidin plates
T2 construct: control complex on streptavidin plates

[4] = biological target: T3, HLA-A*0201/… with alanine at peptide position 3, on peptide-pulsed JY cells (human); assay: flow cytometry, peptide-pulsed JY cells
T3 construct: built from the parent peptide and the stated change
Experimental: (§1) Briefly, 200′000 JY cells were incubated (pulsed) overnight under serum free conditions with 100 μg/ml peptide variants. The amino acids of the used peptides were sequentially substituted for an alanine (information regarding sequences of peptides is summarized FIG. 3B).

[5] = biological target: T4, HLA-A*0201/… with alanine at peptide position 4, on peptide-pulsed JY cells (human); assay: flow cytometry, peptide-pulsed JY cells
T4 construct: built from the parent peptide and the stated change
Experimental: as §1

[6] = biological target: T5, HLA-A*0201/… with alanine at peptide position 5, on peptide-pulsed JY cells (human); assay: flow cytometry, peptide-pulsed JY cells
T5 construct: built from the parent peptide and the stated change
Experimental: as §1

[7] = biological target: T6, HLA-A*0201/… with alanine at peptide position 6, on peptide-pulsed JY cells (human); assay: flow cytometry, peptide-pulsed JY cells
T6 construct: built from the parent peptide and the stated change
Experimental: as §1

[8] = biological target: T7, CD3 molecule expressed on the surface of T cells (human, UniProt P07766 23-207); assay: flow cytometry on PBMCs
T7 construct: whole, on cells; CD3 complex on cells; also called CD3 on PBMCs; CD3 on surface of immune effector cells
T7 sequence (P07766 23-207): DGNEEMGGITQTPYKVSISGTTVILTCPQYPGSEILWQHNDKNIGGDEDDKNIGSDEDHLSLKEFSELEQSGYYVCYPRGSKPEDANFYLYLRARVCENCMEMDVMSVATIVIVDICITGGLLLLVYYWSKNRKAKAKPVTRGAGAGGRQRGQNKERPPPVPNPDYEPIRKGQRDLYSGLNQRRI

IC50 [1]: 0.037 nM
B1: murine 9A7 IgG (antibody, V domains shown)
VH: QVQLQQPGAELVKPGASVKLSCKASGYTFTSFWMHWVKQRPGQGLEWIGEIDSSDSYTNYNQKFKGKATLTVDKSSSTAYMQLSSLTSDDSAVYYCARRVGRGYFDYWGQGTTLTVSS
VL: DIVMTQSHKFMSTSVGDRVSITCKASQDVRTAVVWYQQKPGQSPKLLIYWASTRHTGVPDRFTGSGSGTDYILTISSVQAEDLALYYCQQYDTTPWTFGGGTKVEIK
notes: mouse IgG from hybridoma; also called mouse 9A7 IgG; 9A7 murine antibody
binding result [2]: no binding (tested: dilution series starting at 222 nM) | binding result [3]: no binding (tested: dilution series starting at 100 nM)

binding result [4]: no binding | binding result [5]: no binding | binding result [6]: no binding | binding result [7]: no binding
B2: 4A6 IgG (antibody, V domains shown)
VH: EVQLVQSGAEVKKPGSSVKVSCKASGGTFSSYAISWVRQAPGQGLEWMGGIIPIFGTADYAQKFQGRATITADESTSTAYMELSSLRSEDTAVYYCARDYDFWSGYYAGDVWGQGTTVTVSS
VL: QSALTQPASVSGSPGQSITISCTGTSSDVGGYNYVSWYQQHPGKAPKLMIYDVSNRPSGVSNRFSGSKSGNTASLTISGLQAEDEADYYCSSYTSSSTRVFGGGTKLTVL
notes: IgG detected with anti-human IgG; also called 4A6 antibody

binding result [8]: no binding (tested: 50 ng/ml)
B3: 4A6_SC_FV (scFv, V domains shown)
VH: B2 VH
VL: B2 VL
notes: scFv of 4A6; VH and VL are those named for 4A6; also called monospecific antibody fragment
